Data published in paper PMC7835227 (Scientific Reports, 2021).

B1: cynomolgus monkey FcRn (receptor)
chain 1: AESHLSLLYHLTAVSSPAPGTPAFWVSGWLGPQQYLSYDSLRGQAEPCGAWVWENQVSWYWEKETTDLRIKEKLFLEAFKALGGKGPYTLQGLLGCELSPDNTSVPTAKFALNGEEFMNFDLKQGTWGGDWPEALAISQRWQQQDKAANKELTFLLFSCPHRLREHLERGRGNLEWKEPPSMRLKARPGNPGFSVLTCSAFSFYPPELQLRFLRNGMAAGTGQGDFGPNSDGSFHASSSLTVKSGDEHHYCCIVQHAGLAQPLRVELETPAKSS
chain 2: IQRTPKIQVYSRHPPENGKPNFLNCYVSGFHPSDIEVDLLKNGEKMGKVEHSDLSFSKDWSFYLLYYTEFTPNEKDEYACRVNHVTLSGPRTVKWDRDM
modifications: limits not given; soluble ectodomain taken from the UniProt extracellular feature, with beta-2-microglobulin as obligate subunit by convention
B2: cynomolgus monkey FcRn (receptor)
chain 1: B1 chain 1
chain 2: B1 chain 2

Columns and labels:
[1] = molecular target: T1, GYM329 (human); experiment: SPR; Biacore T200, 25 °C, pH 6.0, PB-P+; antibody captured by protein L immobilised on a CM5 chip; FcRn as analyte, two-fold dilutions 15-240 nmol/L (GYM329) or 250-4000 nmol/L (trastuzumab); steady state model; conditions: both partners purified
T1 construct: light chain of GYM329 (humanized, engineered MST1032); Made a molecule only as the ligand of Fc receptors (FcγRs, FcRn); Captured by protein L in the assays; also called anti-latent myostatin sweeping antibody; source: Chinese hamster ovary cells, stably expressed, purified (protein A)
T1 sequence (heavy, as listed by the source, chain 1 of 2): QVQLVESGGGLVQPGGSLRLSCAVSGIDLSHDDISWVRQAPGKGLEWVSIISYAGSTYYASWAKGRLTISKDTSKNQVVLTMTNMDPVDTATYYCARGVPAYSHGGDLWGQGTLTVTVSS
T1 sequence (light, as listed by the source, chain 2 of 2): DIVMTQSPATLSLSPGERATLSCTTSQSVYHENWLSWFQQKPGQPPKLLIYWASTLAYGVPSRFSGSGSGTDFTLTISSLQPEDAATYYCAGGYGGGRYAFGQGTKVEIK

[2] = molecular target: T2, reference wild type human IgG1 (with trastuzumab Fab) (human); experiment: as above; conditions: both partners purified
T2 construct: heavy variable domain of trastuzumab; wild type human IgG1 heavy constant region; light chain of trastuzumab; Ligand of FcRn here; The supplement says that recombinant antibodies other than GYM329 and GYM-cyFc were expressed transiently in FreeStyle293-F and purified with protein A

Binder | Kd [1] [nM] | Kd [2] [nM]
B1 | 104 | 
B2 |  | 1530
